Article PMC8849337

How the values were obtained:
Assay in all cases: pull-down
[1] = target: PPM-1.D(568-766) (C. elegans)
[2] = target: MBP–PPM-1.D–10×HIS (C. elegans)
[3] = target: MBP-3C–PPM-1.D–truncated–10×HIS (C. elegans)

fold less binding than PPM-1.D [1]: 10 times
fold more binding than PPM-1.D^trunc [1]: 7 times
fold binding relative to PPM-1.D lacking the C terminus [2]: 70 fold
fold binding relative to the MBP affinity tag (NRDE2∆N control) [3]: 4 times
B1: GST–CHK-2–3×FLAG (enzyme)
chain: MVRGTKRRRSSAEKPIVVVPVTRDDTMPVDEDLVVGESQCAASKPFAKLVGVRRGISSIDLADDHFVCGRGSDDAPTNFNFSQVAKDVGLYRFISKIQFSIDRDTETRRIYLHDHSRNGTLVNQEMIGKGLSRELMNGDLISIGIPALIIFVYESADADHHPEELTKKYHVTSHSLGKGGFGKVLLGYKKSDRSVVAIKQLNTQFSTRCSRAIAKTRDIRNEVEVMKKLSHPNIVAIYDWITVAKYSYMVIEYVGGGEFFSKVVDSKYNRMGLGESLGKYFAFQLIDAILYLHSVGICHRDIKPENILCSDKAERCILKLTDFGMAKNSVNRMKTRCGTPSYNAPEIVANEGVEYTPKVDIWSLGCVLFITFSGYPPFSEEYTDMTMDEQVLTGRLIFHAQWRRITVETQNMIKWMLTVEPSNRPSAVELMSTQWMKCADCRTAKQDILKSIKPISAAAPAALQTTQAGPVKKAKM
